{"source": "patent US20050221488", "tested_on": "Spo11 (Saccharomyces cerevisiae)", "assay": "cell_activity", "conditions": "wild-type Spo11 without Gal4BD; DSBs barely detectable"}
{"substance": "GAL2 promoter UASGAL sites", "values": [{"measurement": "activity (% DSB frequency)", "result": "< 0.6"}]}
